Measured values as given in patent US20080145840A1.

Tests used:
C[C@H](N)C(=O)O = assay: purified protein, by the assay type
[1] = system: Nc1ncnc2c1ncn2[C@@H]1O[C@H](COP(=O)(O)OP(=O)(O)OP(=O)(O)O)[C@@H](O)[C@H]1O; assay: purified protein, by the assay type

## E. coli MurC (Escherichia coli K-12)
C[C@H](N)C(=O)O; other: ITC, pH 8.0
  Km: 44 µM
C[C@H](N)C(=O)O; other: Phosphate detection
  Km: 56 µM
[1]; other: ITC, pH 8.0
  Km: 61 µM
[1]; other: Phosphate detection
  Km: 101 µM
